Results: the supplement of paper PMC10266784

B1: library; numbered along this chain (parent)
chain: MAAAAAAAAEQQSSNGPVKKSMREKAVERRSVNKEHNSNFKAGYIPIDEDRLHKTGLRGRKGNLAICVIILLFILAVINLIITLVIWAVIRIGPNGCDSMEFHESGLLRFKQVSDMGVIHPLYKSTVGGRRNENLVITGNNQPIVFQQGTTKLSVENNKTSITSDIGMQFFDPRTQNILFSTDYETHEFHLPSGVKSLNVQKASTERITSNATSDLNIKVDGRAIVRGNEGVFIMGKTIEFHMGGNMELKAENSIILNGSVMVSTTRLPSSSSGDQLGSGDWVRYKLCMCADGTLFKVQVTSQNMGCQISDNPCGNTH

Variants of: B1
Assay: SGCB cell-surface expression functional score (HA stain, bin4 vs bin1, normalised to synonymous) (log10 ratio); higher = more cell-surface SGCB (functional)
Outline: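 Human beta-sarcoglycan, tagged with HA and fused to YFP, was built into codon-saturation libraries and delivered by lentivirus at MOI <0.1 into HEK293 cells that stably express alpha-, gamma- and delta-sarcoglycan. After 72 hours, YFP-positive cells were sorted and grown for 5–7 days, then stained on ice with Alexa Fluor 647 anti-HA, fixed, sorted into four 5% intensity bins and amplicon-sequenced. Each variant's functional score is the log ratio of its frequency in the highest bin to that in the lowest bin, taken as the median across codons and transductions. Transductions were done in duplicate, and synonymous variants were scaled per section to mean 0, SD 0.5.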

SGCB cell-surface expression functional score (log10) of substitutions, site by site:
K152: V 0.52 | F 0.02 | N -0.11 | Y -0.59 | A 0 | R -0.22 | H -0.48 | L -0.53 | G -0.57 | P -0.94 | W 0.3 | C 0.03 | E -0.38 | D -0.66 | M -0.19 | S -0.23 | T -0.04 | I 0.14 | Q -0.46
G149: D -0.25 | N 0.19 | T -0.75 | P -1.17 | K -0.63 | M -0.18 | Q -0.01 | V -0.88 | S -0.12 | R -0.54 | I -0.64 | W -0.54 | C -0.49 | F -0.45 | Y -0.57 | A -0.43 | H -0.28 | E -0.93 | L -0.34
Q147: F -0.65 | D -0.27 | H -0.39 | P -0.68 | E 0.33 | C 0.5 | N 0.29 | I -0.06 | L -0.21 | V 0.26 | W 0.33 | Y -0.42 | G -0.41 | S 0.16 | T -0.47 | K 0.26 | A 0.19 | R -0.06 | M -0.04
T150: G -0.22 | N 0.07 | P -0.37 | F -0.59 | H 0 | A -0.2 | K -0.14 | V -0.25 | Y 0 | D 0.59 | S -0.15 | I 0.04 | C 0.25 | L -0.19 | W 1.1 | R -0.26 | E -0.57 | Q -0.12 | M -0.99
F146: N -1.08 | Q -1.34 | A -1.22 | E -0.7 | S -0.84 | R -1.45 | L 0.18 | C -0.47 | I 0.28 | H -0.89 | Y -0.75 | V -0.32 | K -0.93 | D -1.36 | P -1.14 | G -0.94 | M -0.56 | T -1.45 | W -1.15
L153: Y -1.24 | I -0.17 | K -1.12 | V -0.65 | F -0.26 | P -1.07 | C -0.34 | D -1.44 | H -1.03 | Q -1.65 | T -0.99 | E -0.79 | S -1.03 | G -0.65 | M 0.18 | A -1.08 | W -1.15 | N -1.69 | R -1.23
Q148: N -1.26 | W 0.01 | F -0.38 | A 0.12 | P -1.36 | S 0.42 | V 0.28 | K -0.27 | L -0.18 | I -0.28 | D -0.54 | R 0.02 | E -0.58 | C 0.39 | Y -0.25 | T 0.08 | G 0.33 | H -0.24
S154: A 0.26 | I 0 | H -0.24 | G -0.24 | F -0.49 | K 0.55 | C 0.11 | D 0.2 | E -0.33
T151: V -0.15 | H -1.24 | L -1.22 | P -0.64 | Y -1 | I -0.82 | G -0.94 | N -0.56 | M -1.13 | F -1 | C -0.22 | E -1.31 | K -0.7 | S 0.27 | Q -0.98 | R -1.06 | D -1.17 | A -0.08 | W -1.19
V145: T 0.04 | Q -0.39 | Y -0.43 | S -0.31 | R -0.43 | W -0.57 | P -1.15
